Paper PMC3357048 (Nature structural & molecular biology, 2011)

B1: human IgE-Fc (dimer of Cε2-Cε3-Cε4 domains) (domain or fragment)
chain: CSRDFTPPTVKILQSSCDGGGHFPPTIQLLCLVSGYTPGTINITWLEDGQVMDVDLSTASTTQEGELASTQSELTLSQKHWLSDRTYTCQVTYQGHTFEDSTKKCADSNPRGVSAYLSRPSPFDLFIRKSPTITCLVVDLAPSKGTVNLTWSRASGKPVNHSTRKEEKQRNGTLTVTSTLPVGTRDWIEGETYQCRVTHPHLPRALMRSTTKTSGPRAAPEVYAFATPEWPGSRDKRTLACLIQNFMPEDISVQWLHNEVQLPDARHSTTQPRKTKGSGFFVFSRLEVTRAEWEQKDEFICRAVHEAASPSQTVQRAVSVNPGL
modifications: N-linked high-mannose carbohydrate at Asn394

Assays:
[1] = target: sFcεRIα W87D (immobilised for SPR) (human) (UniProt P12319); experiment: SPR
[2] = target: the molecule itself; experiment: crystal structure

| Molecule | dH [1] [kcal/mol] | stoichiometry N [2] |
| --- | --- | --- |
| Fcε3-4 (sub-fragment of IgE-Fc lacking the Cε2 domains) (from UniProt P01854 211-427) (domain or fragment) | -15.2 |  |
| B1 |  | 2 |
